Laboratory results: article PMC7033278, “A Nonpeptide Oxytocin Receptor Agonist for a Durable Relief of Inflammatory Pain” (Scientific Reports, 2020)
Like-named read-outs stand apart in the source and are kept apart here.

Assays:
[1] = target: Transient Receptor Potential Vanilloid type-1 (TRPV1); set-up: method as in PMID 29117570; settings: cited from earlier work
[2] = set-up: method as in PMID 19183510; settings: humans and rats; listed as OT; cited from earlier work
[3] = set-up: method as in PMID 6831225; settings: rat CSF (abstract: humans and rats), cited from earlier work
[4] = stated for comparison, no reference given; cited from earlier work
[5] = target: T1, ionotropic TRPV1 receptor (Homo sapiens, UniProt Q8NER1); assay: Eurofins functional profiling, TRPV1 agonist/antagonist; format: cell-based; settings: 5 μM
T1 construct: Eurofins (contract assay)
T1 sequence (Q8NER1 whole entry): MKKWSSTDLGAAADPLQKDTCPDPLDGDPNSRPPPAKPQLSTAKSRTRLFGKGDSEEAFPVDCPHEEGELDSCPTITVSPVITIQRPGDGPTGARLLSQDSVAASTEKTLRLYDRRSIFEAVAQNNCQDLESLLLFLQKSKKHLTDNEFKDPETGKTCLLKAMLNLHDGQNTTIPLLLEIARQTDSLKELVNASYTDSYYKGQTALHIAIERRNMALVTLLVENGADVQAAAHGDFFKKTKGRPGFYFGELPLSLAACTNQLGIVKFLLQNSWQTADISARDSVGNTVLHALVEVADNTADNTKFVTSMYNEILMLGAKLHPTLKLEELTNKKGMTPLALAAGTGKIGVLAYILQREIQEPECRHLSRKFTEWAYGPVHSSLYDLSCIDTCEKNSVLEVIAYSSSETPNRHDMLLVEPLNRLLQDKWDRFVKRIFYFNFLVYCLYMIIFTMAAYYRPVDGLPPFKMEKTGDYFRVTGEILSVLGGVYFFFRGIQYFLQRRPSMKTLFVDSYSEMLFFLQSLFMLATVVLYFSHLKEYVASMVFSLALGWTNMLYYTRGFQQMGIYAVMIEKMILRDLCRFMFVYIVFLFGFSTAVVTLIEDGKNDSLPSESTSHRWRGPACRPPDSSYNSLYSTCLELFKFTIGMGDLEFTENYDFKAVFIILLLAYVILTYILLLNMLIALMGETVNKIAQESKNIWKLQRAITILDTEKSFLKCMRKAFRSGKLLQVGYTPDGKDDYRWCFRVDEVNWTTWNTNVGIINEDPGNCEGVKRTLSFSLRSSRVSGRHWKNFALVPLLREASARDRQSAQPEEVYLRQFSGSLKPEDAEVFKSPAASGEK
Procedure: In vitro profiling of LIT-001 was performed by Eurofins as described in the Eurofins SafetyScreen-Functional panel, 2018[31]. The hepatotoxicity of LIT-001 was studied with cryo-preserved mouse hepatocytes. After unfreezing (optiTHAW and optiINCUBATE media, Xenotech) and cell viability control, cells (2 × 10^6 cells/ml) were dispatched in 96 well microtiterplates. LIT-001 was added to reach a concentration 1 μM in the presence of 1 × 10^6 cells/mL in a volume of 100 μl/well. The incubation was stopped at 4, 20, 40, 80 and 120 min in adding 100 μl of acetonitrile at 0 °C. A positive control was treated in the same conditions. All samples were analyzed by UHPLC coupled to a mass spectrometer (Shimadzu LC-MS 8030).

Compound: Oxytocin
- EC50 [1]: 0.316 µM
- half-life in the blood circulation [2]: 5 min
- half-life in cerebrospinal fluid (CSF) [3]: around twenty
- half-life in cerebrospinal fluid (CSF) ([3]; listed as OT): around 20 minutes
- half-life [4]: less than 15 min

Compound: Cc1ccccc1N1CCN(S(=O)(=O)C[C@]23CC[C@H](C[C@@H]2NC(=O)[C@@H](N)CCS(C)(=O)=O)C3(C)C)CC1 [L-368,699, reference compound]
- agonist or antagonist activity at TRPV1 receptor [5]: neither LIT-001 nor the OT antagonist L-368,699 displayed any significant agonist or antagonist activity
